In experiment [1] the target is His-tagged galectin-3 (human, UniProt P17931 1-250). The experiment can be described thus: AlphaScreen or HTRF. Background: Bead proximity is the source of the signal in Alpha formats.
For experiment [2], the target named is full-length human galectin-3 (human, UniProt P17931 1-250). The experiment can be described thus: ITC. Background: Isothermal titration calorimetry measures the heat released or taken up as one component is titrated into another.

From article PMC4520625 (Biochemistry, 2015) come the findings set out here.

Ends that are not written are not given here. * marks the point of attachment. Galβ1,3GalNAcα = CC(=O)N[C@@H]1[C@@H](O[C@@H]2O[C@H](CO)[C@H](O)[C@H](O)[C@H]2O)[C@@H](O)[C@@H](CO)O[C@@H]1*

As usually defined, the IC50 is the midpoint of a concentration-inhibition curve. The low end stands for greater potency in that assay, the high end for weaker potency in that assay. By stoichiometry N is commonly meant a count of units in the complex or per binding partner.

full-length human galectin-3, sequence (P17931 whole entry): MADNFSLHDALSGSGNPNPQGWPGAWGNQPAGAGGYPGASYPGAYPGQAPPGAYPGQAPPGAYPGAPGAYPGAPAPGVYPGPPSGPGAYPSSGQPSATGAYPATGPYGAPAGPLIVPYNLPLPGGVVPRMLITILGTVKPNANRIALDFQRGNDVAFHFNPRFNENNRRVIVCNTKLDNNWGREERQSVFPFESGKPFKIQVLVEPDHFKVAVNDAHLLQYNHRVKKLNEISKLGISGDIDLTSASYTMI
His-tagged galectin-3, sequence (P17931 whole entry): as above

B1: asialofetuin (ASF), unlabeled (natural protein, UniProt P12763 19-359, looked up)
chain: IPLDPVAGYKEPACDDPDTEQAALAAVDYINKHLPRGYKHTLNQIDSVKVWPRRPTGEVYDIEIDTLETTCHVLDPTPLANCSVRQQTQHAVEGDCDIHVLKQDGQFSVLFTKCDSSPDSAEDVRKLCPDCPLLAPLNDSRVVHAVEVALATFNAESNGSYLQLVEISRAQFVPLPVSVSVEFAVAATDCIAKEVVDPTKCNLLAEKQYGFCKGSVIQKALGGEDVRVTCTLFQTQPVIPQPQPDGAEAEAPSAVPDAAGPTPSAAGPPVASVVVGPSVVAVPLPLHRAHYDLRHTFSGVASVESSSGEAFHVGKTPIVGQPSIPGGPVRLCPGRIRYFKI
modifications: three complex-type N-glycans (asialo)
The molecule B1 showed an IC50 in experiment [1] of 2.3 nM.
Take HGVT(Galβ1,3GalNAcα)SAPDTRPAPGS [MUC1(1-15)-Thr4 truncated glycopeptide carrying the TF antigen]: in experiment [2], the Ka was found to be 7600 M⁻¹, the dH is -1.79 kcal/mol and the “stoichiometry N” value was 0.87.
As to HGVT(Galβ1,3GalNAcα)SAPD [MUC1(1-8)-Thr4 truncated glycopeptide carrying the TF antigen], in experiment [2], the Ka turned out to be 2900 M⁻¹, the dH is -1.32 kcal/mol and the “stoichiometry N” value came out at 0.97.
